Measured values: patent US20210246166A1 (Bayer, published 2021)
Bridge positions count the residues as written; N and C are the ends. Square brackets hold non-standard residues; d marks the D form. Ends that are not written are not given here. * marks the point of attachment. Pro(trans-4-F) = O=C(O)[C@@H]1C[C@@H](F)CN1; Oic = O=C(O)[C@@H]1C[C@@H]2CCCC[C@@H]2N1; Cyclopropylacetic acid = O=C(CC1CC1)*; Hyp = O=C(O)[C@@H]1C[C@@H](O)CN1; NMeI = CC[C@H](C)[C@H](NC)C(=O)O; aIle = CC[C@@H](C)[C@H](N)C(=O)O; tBuAla = CC(C)(C)C[C@H](N)C(=O)O; aThr = C[C@H](O)[C@H](N)C(=O)O; Chg = N[C@H](C(=O)O)C1CCCCC1; αMeP = C[C@@]1(C(=O)O)CCCN1; NMeC = CN[C@@H](CS)C(=O)O; Orn = NCCC[C@H](N)C(=O)O; Abu = CC[C@H](N)C(=O)O; Aib = CC(C)(N)C(=O)O; Sar = CNCC(=O)O

B1: Example 268: AIC+SRS-((tBu)A)-P-(Oic)-I-((N-Me)C)+IPD-NH2 (peptide)
peptide: AICSRS[tBuAla]P[Oic]I[NMeC]IPD-NH2
modifications: disulfide 3-11; N-terminus assumed
SMILES: CC[C@H](C)[C@H](NC(=O)[C@H](C)N)C(=O)N[C@H]1CSSC[C@@H](C(=O)N[C@H](C(=O)N2CCC[C@H]2C(=O)N[C@@H](CC(=O)O)C(N)=O)[C@@H](C)CC)N(C)C(=O)[C@H]([C@@H](C)CC)NC(=O)[C@@H]2C[C@@H]3CCCC[C@@H]3N2C(=O)[C@@H]2CCCN2C(=O)[C@H](CC(C)(C)C)NC(=O)[C@H](CO)NC(=O)[C@H](CCCNC(=N)N)NC(=O)[C@H](CO)NC1=O
B2: Example 270: AIC+SRSLP-(Oic)-(Chg)-C+IPD-NH2 (peptide)
peptide: AICSRSLP[Oic][Chg]CIPD-NH2
modifications: disulfide 3-11; N-terminus assumed
SMILES: CC[C@H](C)[C@H](NC(=O)[C@H](C)N)C(=O)N[C@H]1CSSC[C@@H](C(=O)N[C@H](C(=O)N2CCC[C@H]2C(=O)N[C@@H](CC(=O)O)C(N)=O)[C@@H](C)CC)NC(=O)[C@H](C2CCCCC2)NC(=O)[C@@H]2C[C@@H]3CCCC[C@@H]3N2C(=O)[C@@H]2CCCN2C(=O)[C@H](CC(C)C)NC(=O)[C@H](CO)NC(=O)[C@H](CCCNC(=N)N)NC(=O)[C@H](CO)NC1=O
B3: Example 274: (Cyclopropylacetic acid)-IC+SRS-((tBu)A)-PPI-((N-Me)C)+I-NH2 (peptide)
peptide: {Cyclopropylacetic acid}-ICSRS[tBuAla]PPI[NMeC]I-NH2
modifications: disulfide 2-10
SMILES: CC[C@H](C)[C@H](NC(=O)[C@@H]1CSSC[C@H](NC(=O)[C@@H](NC(=O)CC2CC2)[C@@H](C)CC)C(=O)N[C@@H](CO)C(=O)N[C@@H](CCCNC(=N)N)C(=O)N[C@@H](CO)C(=O)N[C@@H](CC(C)(C)C)C(=O)N2CCC[C@H]2C(=O)N2CCC[C@H]2C(=O)N[C@@H]([C@@H](C)CC)C(=O)N1C)C(N)=O
B4: Example 275: G-((N-Me)I)-C+SRSLPPIC+IPD-OH (peptide)
peptide: G[NMeI]CSRSLPPICIPD-OH
modifications: disulfide 3-11; N-terminus assumed
SMILES: CC[C@H](C)[C@@H]1NC(=O)[C@@H]2CCCN2C(=O)[C@@H]2CCCN2C(=O)[C@H](CC(C)C)NC(=O)[C@H](CO)NC(=O)[C@H](CCCNC(=N)N)NC(=O)[C@H](CO)NC(=O)[C@@H](NC(=O)[C@H]([C@@H](C)CC)N(C)C(=O)CN)CSSC[C@@H](C(=O)N[C@H](C(=O)N2CCC[C@H]2C(=O)N[C@@H](CC(=O)O)C(=O)O)[C@@H](C)CC)NC1=O
B5: Example 276: G-((N-Me)I)-C+SRSLPPIC+IPd-OH (peptide)
peptide: G[NMeI]CSRSLPPICIP[dD]-OH
modifications: disulfide 3-11; N-terminus assumed
SMILES: CC[C@H](C)[C@@H]1NC(=O)[C@@H]2CCCN2C(=O)[C@@H]2CCCN2C(=O)[C@H](CC(C)C)NC(=O)[C@H](CO)NC(=O)[C@H](CCCNC(=N)N)NC(=O)[C@H](CO)NC(=O)[C@@H](NC(=O)[C@H]([C@@H](C)CC)N(C)C(=O)CN)CSSC[C@@H](C(=O)N[C@H](C(=O)N2CCC[C@H]2C(=O)N[C@H](CC(=O)O)C(=O)O)[C@@H](C)CC)NC1=O
B6: Example 277: ((N-Me)G)-IC+SRSLPPIC+(allo-I)-PD-NH2 (peptide)
peptide: [Sar]ICSRSLPPIC[aIle]PD-NH2
modifications: disulfide 3-11; N-terminus assumed
SMILES: CC[C@@H](C)[C@H](NC(=O)[C@@H]1CSSC[C@H](NC(=O)[C@@H](NC(=O)CNC)[C@@H](C)CC)C(=O)N[C@@H](CO)C(=O)N[C@@H](CCCNC(=N)N)C(=O)N[C@@H](CO)C(=O)N[C@@H](CC(C)C)C(=O)N2CCC[C@H]2C(=O)N2CCC[C@H]2C(=O)N[C@@H]([C@@H](C)CC)C(=O)N1)C(=O)N1CCC[C@H]1C(=O)N[C@@H](CC(=O)O)C(N)=O
B7: Example 278: AIC+SR-(allo-T)-LPPIC+IPD-NH2 (peptide)
peptide: AICSR[aThr]LPPICIPD-NH2
modifications: disulfide 3-11; N-terminus assumed
SMILES: CC[C@H](C)[C@H](NC(=O)[C@H](C)N)C(=O)N[C@H]1CSSC[C@@H](C(=O)N[C@H](C(=O)N2CCC[C@H]2C(=O)N[C@@H](CC(=O)O)C(N)=O)[C@@H](C)CC)NC(=O)[C@H]([C@@H](C)CC)NC(=O)[C@@H]2CCCN2C(=O)[C@@H]2CCCN2C(=O)[C@H](CC(C)C)NC(=O)[C@H]([C@H](C)O)NC(=O)[C@H](CCCNC(=N)N)NC(=O)[C@H](CO)NC1=O
B8: Example 282: ((N-Me)G)-IC+SRSLPP-(Chg)-C+IPD-NH2 (peptide)
peptide: [Sar]ICSRSLPP[Chg]CIPD-NH2
modifications: disulfide 3-11; N-terminus assumed
SMILES: CC[C@H](C)[C@H](NC(=O)CNC)C(=O)N[C@H]1CSSC[C@@H](C(=O)N[C@H](C(=O)N2CCC[C@H]2C(=O)N[C@@H](CC(=O)O)C(N)=O)[C@@H](C)CC)NC(=O)[C@H](C2CCCCC2)NC(=O)[C@@H]2CCCN2C(=O)[C@@H]2CCCN2C(=O)[C@H](CC(C)C)NC(=O)[C@H](CO)NC(=O)[C@H](CCCNC(=N)N)NC(=O)[C@H](CO)NC1=O
B9: Example 286: GIC+SRSLPPIC+I-(Aib)-D-OH (peptide)
peptide: GICSRSLPPICI[Aib]D-OH
modifications: disulfide 3-11; N-terminus assumed
SMILES: CC[C@H](C)[C@H](NC(=O)CN)C(=O)N[C@H]1CSSC[C@@H](C(=O)N[C@H](C(=O)NC(C)(C)C(=O)N[C@@H](CC(=O)O)C(=O)O)[C@@H](C)CC)NC(=O)[C@H]([C@@H](C)CC)NC(=O)[C@@H]2CCCN2C(=O)[C@@H]2CCCN2C(=O)[C@H](CC(C)C)NC(=O)[C@H](CO)NC(=O)[C@H](CCCNC(=N)N)NC(=O)[C@H](CO)NC1=O
B10: Example 287: ((N-Me)G)-IC+SRSLPPIC+I-((trans-4-Fluoro)P)-D-OH (peptide)
peptide: [Sar]ICSRSLPPICI[Pro(trans-4-F)]D-OH
modifications: disulfide 3-11; N-terminus assumed
SMILES: CC[C@H](C)[C@H](NC(=O)CNC)C(=O)N[C@H]1CSSC[C@@H](C(=O)N[C@H](C(=O)N2C[C@H](F)C[C@H]2C(=O)N[C@@H](CC(=O)O)C(=O)O)[C@@H](C)CC)NC(=O)[C@H]([C@@H](C)CC)NC(=O)[C@@H]2CCCN2C(=O)[C@@H]2CCCN2C(=O)[C@H](CC(C)C)NC(=O)[C@H](CO)NC(=O)[C@H](CCCNC(=N)N)NC(=O)[C@H](CO)NC1=O
B11: Example 289: ((N-Me)G)-IC+SRSLPP-IC+I-((2-Me)P)-D-OH (peptide)
peptide: [Sar]ICSRSLPPICI[αMeP]D-OH
modifications: disulfide 3-11; N-terminus assumed
SMILES: CC[C@H](C)[C@H](NC(=O)CNC)C(=O)N[C@H]1CSSC[C@@H](C(=O)N[C@H](C(=O)N2CCC[C@@]2(C)C(=O)N[C@@H](CC(=O)O)C(=O)O)[C@@H](C)CC)NC(=O)[C@H]([C@@H](C)CC)NC(=O)[C@@H]2CCCN2C(=O)[C@@H]2CCCN2C(=O)[C@H](CC(C)C)NC(=O)[C@H](CO)NC(=O)[C@H](CCCNC(=N)N)NC(=O)[C@H](CO)NC1=O
B12: Example 313: ((N-Me)G)-IC+SRSLPPIC+I-(Abu)-D-OH (peptide)
peptide: [Sar]ICSRSLPPICI[Abu]D-OH
modifications: disulfide 3-11; N-terminus assumed
SMILES: CC[C@H](NC(=O)[C@@H](NC(=O)[C@@H]1CSSC[C@H](NC(=O)[C@@H](NC(=O)CNC)[C@@H](C)CC)C(=O)N[C@@H](CO)C(=O)N[C@@H](CCCNC(=N)N)C(=O)N[C@@H](CO)C(=O)N[C@@H](CC(C)C)C(=O)N2CCC[C@H]2C(=O)N2CCC[C@H]2C(=O)N[C@@H]([C@@H](C)CC)C(=O)N1)[C@@H](C)CC)C(=O)N[C@@H](CC(=O)O)C(=O)O
B13: Example 348: GIC+SRSLPPIC+I-(Hyp)-D-OH (peptide)
peptide: GICSRSLPPICI[Hyp]D-OH
modifications: disulfide 3-11; N-terminus assumed
SMILES: CC[C@H](C)[C@H](NC(=O)CN)C(=O)N[C@H]1CSSC[C@@H](C(=O)N[C@H](C(=O)N2C[C@H](O)C[C@H]2C(=O)N[C@@H](CC(=O)O)C(=O)O)[C@@H](C)CC)NC(=O)[C@H]([C@@H](C)CC)NC(=O)[C@@H]2CCCN2C(=O)[C@@H]2CCCN2C(=O)[C@H](CC(C)C)NC(=O)[C@H](CO)NC(=O)[C@H](CCCNC(=N)N)NC(=O)[C@H](CO)NC1=O
B14: Example 367: ((N-Me)G)-IC+SRSLPPIC+I-(Oic)-D-OH (peptide)
peptide: [Sar]ICSRSLPPICI[Oic]D-OH
modifications: disulfide 3-11; N-terminus assumed
SMILES: CC[C@H](C)[C@H](NC(=O)CNC)C(=O)N[C@H]1CSSC[C@@H](C(=O)N[C@H](C(=O)N2[C@H](C(=O)N[C@@H](CC(=O)O)C(=O)O)C[C@@H]3CCCC[C@@H]32)[C@@H](C)CC)NC(=O)[C@H]([C@@H](C)CC)NC(=O)[C@@H]2CCCN2C(=O)[C@@H]2CCCN2C(=O)[C@H](CC(C)C)NC(=O)[C@H](CO)NC(=O)[C@H](CCCNC(=N)N)NC(=O)[C@H](CO)NC1=O
B15: Example 479: (Orn)-IC+SRS-((tBu)A)-PPI-((N-Me)C)+IPD-OH (peptide)
peptide: [Orn]ICSRS[tBuAla]PPI[NMeC]IPD-OH
modifications: disulfide 3-11; N-terminus assumed
SMILES: CC[C@H](C)[C@H](NC(=O)[C@@H](N)CCCN)C(=O)N[C@H]1CSSC[C@@H](C(=O)N[C@H](C(=O)N2CCC[C@H]2C(=O)N[C@@H](CC(=O)O)C(=O)O)[C@@H](C)CC)N(C)C(=O)[C@H]([C@@H](C)CC)NC(=O)[C@@H]2CCCN2C(=O)[C@@H]2CCCN2C(=O)[C@H](CC(C)(C)C)NC(=O)[C@H](CO)NC(=O)[C@H](CCCNC(=N)N)NC(=O)[C@H](CO)NC1=O

These binders were tested against T1, recombinant rat MASP1 active protease (amino acids 302-704, C-terminal His Tag) (rat, UniProt Q8CHN8 302-704) (assay: cell-based or functional assay).
T1 sequence: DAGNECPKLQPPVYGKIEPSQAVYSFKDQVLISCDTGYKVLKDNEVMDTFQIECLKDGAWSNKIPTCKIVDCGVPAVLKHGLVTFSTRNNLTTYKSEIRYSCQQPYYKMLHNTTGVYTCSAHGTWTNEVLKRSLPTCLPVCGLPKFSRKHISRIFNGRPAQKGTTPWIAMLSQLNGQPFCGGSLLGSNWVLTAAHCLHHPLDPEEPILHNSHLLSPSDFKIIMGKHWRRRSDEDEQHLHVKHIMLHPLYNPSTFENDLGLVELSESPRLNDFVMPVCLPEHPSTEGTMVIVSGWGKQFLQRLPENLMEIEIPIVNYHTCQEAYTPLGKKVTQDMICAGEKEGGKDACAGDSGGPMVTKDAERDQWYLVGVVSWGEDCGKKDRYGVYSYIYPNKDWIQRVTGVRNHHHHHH

Row | rat MASP1 IC50 [nM] | Binder
1 | 100 | B1
2 | 170 | B2
3 | 89 | B3
4 | 150 | B4
5 | 200 | B5
6 | 190 | B6
7 | 83 | B7
8 | 470 | B8
9 | 230 | B9
10 | 250 | B10
11 | 180 | B11
12 | 220 | B12
13 | 350 | B13
14 | 120 | B14
15 | 84 | B15
